Assay results taken from paper PMC4548480, “Structures of the Ultra-High-Affinity Protein–Protein Complexes of Pyocins S2 and AP41 and Their Cognate Immunity Proteins from Pseudomonas aeruginosa” (Journal of Molecular Biology, 2015).

Target: T1, pyocin S2 DNase domain (Pseudomonas aeruginosa, UniProt Q06584 556-688)
T1 construct: pyocin S2, Pseudomonas aeruginosa, residues 556-688 found in the crystal after crystallisation of the intact PyoS2-ImS2 complex with chymotrypsin; The fragment of PyoS2 in the crystal was unknown to the authors; The limits 556-688 are those found in the solved structure; also called PyoS2 DNase; PyoS2; source: crystallised in the presence of chymotrypsin
T1 sequence: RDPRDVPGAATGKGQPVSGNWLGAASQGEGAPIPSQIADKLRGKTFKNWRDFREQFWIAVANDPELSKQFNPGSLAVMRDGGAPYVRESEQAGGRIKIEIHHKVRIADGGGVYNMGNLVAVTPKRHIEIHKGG
Test: crystal structure; intact PyoS2-ImS2 complex crystallised with chymotrypsin (1:100); 0.2 M sodium bromide, 20% (w/v) PEG 3350, 0.1 M Bis-tris propane pH 6.5; 1.8 Å; four copies of the complex in the asymmetric unit
Conditions: both partners purified

B1: pyocin S2 immunity protein ImS2 (natural protein)
chain: MKSKISEYTEKEFLEFVKDIYTNNKKKFPTEESHIQAVLEFKKLTEHPSGSDLLYYPNENREDSPAGVVKEVKEWRASKGLPGFKAG
notes: immunity protein of pyocin S2 (ImS2), Pseudomonas aeruginosa, full length; the entirety of the immunity protein was present in the crystal
B1: binds.
